Read-outs that look alike come from different tables or passages of the source.
Assays:
[1] = molecular target: cynomolgus CD40 antigen (ACROBiosystems) (cynomolgus) (UniProt G7PG38); assay: ELISA, coated antigen
[2] = molecular target: human CD40 antigen (ACROBiosystems) (human) (UniProt P25942); assay: ELISA, coated antigen
[3] = molecular target: cynomolgus CD40 antigen (ACROBiosystems) (cynomolgus) (UniProt G7PG38); assay: ELISA, coated antigen; remark: listed apart in the source
[4] = molecular target: human CD40 antigen (ACROBiosystems) (human) (UniProt P25942); assay: ELISA, coated antigen; remark: listed apart in the source
[5] = molecular target: CD40 on HEK-Blue CD40L cells (InvivoGen) (UniProt P25942); assay: cell-based or functional assay
CD40 on HEK-Blue CD40L cells (InvivoGen), sequence (P25942 21-277 limits assumed): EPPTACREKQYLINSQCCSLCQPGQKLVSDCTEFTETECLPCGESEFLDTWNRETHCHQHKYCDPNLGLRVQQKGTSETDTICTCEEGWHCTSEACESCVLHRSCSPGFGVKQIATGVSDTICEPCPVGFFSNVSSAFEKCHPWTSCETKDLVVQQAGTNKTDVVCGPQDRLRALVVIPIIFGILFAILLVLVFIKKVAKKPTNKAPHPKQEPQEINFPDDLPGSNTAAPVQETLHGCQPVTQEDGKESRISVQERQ

[6] = molecular target: cynomolgus PD-L1 antigen (ACROBiosystems) (cynomolgus) (UniProt G7PSE7); assay: ELISA, coated antigen
cynomolgus PD-L1 antigen (ACROBiosystems) (cynomolgus), sequence (G7PSE7 entry or part of it): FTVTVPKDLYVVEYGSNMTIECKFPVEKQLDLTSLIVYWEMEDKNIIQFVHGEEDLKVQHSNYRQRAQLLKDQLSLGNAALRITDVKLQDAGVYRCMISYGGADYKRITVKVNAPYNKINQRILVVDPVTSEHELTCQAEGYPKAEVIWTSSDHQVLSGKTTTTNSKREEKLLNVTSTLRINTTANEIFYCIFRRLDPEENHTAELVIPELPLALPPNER

[7] = molecular target: human PD-L1 antigen (ACROBiosystems) (human) (UniProt Q9NZQ7); assay: ELISA, coated antigen
human PD-L1 antigen (ACROBiosystems) (human), sequence (Q9NZQ7 19-238 limits assumed): as the sequence (G7PSE7 entry or part of it) above, with T33A, S34A, N62S, Q68R, R82Q, L173F, A185T, I192T, L215H counted along it

[8] = molecular target: human PD-L1 antigen (ACROBiosystems) (human) (UniProt Q9NZQ7); assay: ELISA, coated antigen; remark: listed apart in the source
[9] = molecular target: human PD-L1 antigen (ACROBiosystems) (human) (UniProt Q9NZQ7); assay: BLI (Gator), antibody captured on PA probe, human PD-L1 in solution

control CD40 monoclonal antibody CP-870893 (IMGT database ID 10523), sequence (VH): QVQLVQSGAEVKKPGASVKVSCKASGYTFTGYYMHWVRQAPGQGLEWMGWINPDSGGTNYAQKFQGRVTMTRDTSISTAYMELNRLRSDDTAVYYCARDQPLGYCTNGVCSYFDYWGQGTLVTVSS
control CD40 monoclonal antibody CP-870893 (IMGT database ID 10523), sequence (VL): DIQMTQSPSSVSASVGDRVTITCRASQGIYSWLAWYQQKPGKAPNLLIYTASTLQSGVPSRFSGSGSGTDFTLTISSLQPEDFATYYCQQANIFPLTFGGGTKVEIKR
human CD40 antigen (ACROBiosystems) (human), sequence (P25942 21-193 limits assumed): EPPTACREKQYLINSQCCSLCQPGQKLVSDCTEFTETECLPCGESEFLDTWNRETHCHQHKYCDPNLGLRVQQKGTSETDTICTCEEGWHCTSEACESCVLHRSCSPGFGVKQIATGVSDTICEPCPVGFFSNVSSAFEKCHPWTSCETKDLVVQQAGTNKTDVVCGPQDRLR
cynomolgus CD40 antigen (ACROBiosystems) (cynomolgus), sequence (G7PG38 entry or part of it): as the sequence (P25942 21-193 limits assumed) above, with G43S, H56R, R70Q, W89L, A95S, L101P, S106L, H142R, L172Q counted along it

control CD40 monoclonal antibody CP-870893 (IMGT database ID 10523)
EC50 [1]: 0.018 nM | EC50 [2]: 0.018 nM | EC50 [3]: 0.016 nM | EC50 [4]: 0.016 nM | CD40 agonistic activity (A)/(B) Ratio, EC50 without over with CHO/PD-L1 [5]: 0.9 | CD40 agonistic activity EC50 (nM) with CHO/PD-L1 (B), SEAP reporter [5]: 0.123 nM | CD40 agonistic activity EC50 (nM) without CHO/PD-L1 (A), SEAP reporter [5]: 0.109 nM

control PD-L1 monoclonal antibody Durvalumab (IMGT database ID 10010)
EC50 [6]: 0.017 nM | EC50 [7]: 0.014 nM | EC50 [8]: 0.012 nM | koff [9]: 0.00265 s⁻¹

From patent US20250376533A1
